Experimental findings from patent publication US20110293610A1 (published 2011) are described below.

Substitutions are numbered along the chain they refer to.

A word on the Kd: it is the constant that tells how readily two partners part at equilibrium. By IC50 is commonly meant the concentration needed to halve the response being measured. A higher IC50 goes with lower potency.

In one test the target is T1, TNF-alpha (human, UniProt P01375 77-233).
T1 construct: also called TNFα; TNF-α
Description: phage ELISA. On the technique in general: An ELISA detects its analyte on a solid surface through an enzyme-linked reagent.

Another test has as its target T2, TNF-beta (human, UniProt P01374 35-205).
T2 construct: also called TNFβ; Tumour Necrosis Factor-beta
T2 sequence (looked up): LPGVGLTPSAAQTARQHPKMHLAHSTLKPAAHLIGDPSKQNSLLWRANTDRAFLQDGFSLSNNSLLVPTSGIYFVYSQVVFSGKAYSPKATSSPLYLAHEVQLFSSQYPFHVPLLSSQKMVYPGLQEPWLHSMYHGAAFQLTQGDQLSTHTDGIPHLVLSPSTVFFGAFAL
Description: phage ELISA.

A further test has as its target T3, Bovine serum albumin (bovine, UniProt P02769 25-607).
T3 construct: also called BSA
Description: phage ELISA.

The next test deals with T4, TRAIL (human, UniProt P50591 114-281).
T4 construct: also called TNF-related apoptosis inducing ligand
T4 sequence (P50591 114-281 limits assumed): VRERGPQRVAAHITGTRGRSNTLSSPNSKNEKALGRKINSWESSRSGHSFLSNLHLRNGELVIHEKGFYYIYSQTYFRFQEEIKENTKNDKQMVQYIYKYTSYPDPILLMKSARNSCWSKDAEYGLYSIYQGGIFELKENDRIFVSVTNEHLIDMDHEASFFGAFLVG
Nature of the test: phage ELISA.

The target in test [1] is T5, B Lymphocyte Stimulator, soluble form (human) (human, UniProt Q9Y275 134-285, biotinylated with NHS-biotin where used as biotinylated B Lymphocyte Stimulator).
T5 construct: Coated on plastic, captured on streptavidin plates, amine-coupled to a CM5 chip or free in solution, depending on the assay; also called BLyS; immobilized B Lymphocyte Stimulator
Description: phage ELISA.

In another test the target is LIGHT (human, UniProt O43557 74-240, limits assumed). Nature of the test: phage ELISA.
Chain of LIGHT (O43557 74-240 limits assumed): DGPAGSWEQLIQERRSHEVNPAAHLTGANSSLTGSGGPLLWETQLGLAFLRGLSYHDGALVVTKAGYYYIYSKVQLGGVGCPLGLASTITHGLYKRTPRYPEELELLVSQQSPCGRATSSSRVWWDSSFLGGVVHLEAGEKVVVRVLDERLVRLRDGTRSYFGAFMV
For test [2], the target named is T6, HIS-tagged B Lymphocyte Stimulator (human, UniProt Q9Y275 71-285).
T6 construct: Expressed in E. coli; also called HIS-B Lymphocyte Stimulator; histidine-tagged B Lymphocyte Stimulator; not shown: histidine tag from the pQE9 vector
Nature of the test: BIAcore, purified scFv over low density HIS-BLyS surface. The protocol:
The chip containing the low density HIS-B Lymphocyte Stimulator surface was inserted into the BIAcore. […] The dilution series was then injected sequentially over the blank control (flow cell 1) and low density HIS-B Lymphocyte Stimulator surface (flow cell 2) using the following program: […]

Test [3] has as its target T5, B Lymphocyte Stimulator, soluble form …. Nature of the test: phage competition ELISA.
In a further test the target is T7, Fas ligand (human, UniProt P48023 134-281, limits assumed).
T7 sequence (looked up): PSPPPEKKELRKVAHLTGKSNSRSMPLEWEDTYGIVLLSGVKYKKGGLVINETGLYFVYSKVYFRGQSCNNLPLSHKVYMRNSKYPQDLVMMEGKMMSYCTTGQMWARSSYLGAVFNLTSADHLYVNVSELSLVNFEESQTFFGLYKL
Nature of the test: phage ELISA.

Test [4] concerns the target T8, mouse B Lymphocyte Stimulator (mouse, UniProt Q9WU72 127-309, limits assumed).
T8 construct: also called murine B Lymphocyte Stimulator; immobilized mouse B Lymphocyte Stimulator
Nature of the test: phage ELISA.

The target in test [5] is T9, membrane-bound B Lymphocyte Stimulator on U937 plasma membrane preparations (human, UniProt Q9Y275 1-285).
T9 construct: Natural protein in plasma membrane fractions of the human cell line U937 coated on ELISA plates; also called U937 plasma membranes; U937 membranes
Description: phage ELISA.

In test [6] the target is T5, B Lymphocyte Stimulator, soluble form …. Description: purified scFv, inhibition of biotinylated BLyS binding to IM9 cells. As for the experimental part:
To a separate 96-well plate, titrate test scFvs in MPBS, in triplicate, over a concentration range from 10 μg/ml down to 0.001 μg/ml were added. The final volume of test scFv in each well was 55 μl. […] Plates were then incubated at room temperature for 30 minutes.
Plates were washed three times in PBST and three times in PBS, tapped dry and 50 μl per well added of streptavidin-Delfia (Wallac) at 1:1000 dilution in the Manufacturer's assay buffer. The plates were then incubated at room temperature for 1 hour and washed six times in Delfia wash solution (Wallac). After tapping the plates dry, 100 μl per well of Delfia enhancement solution (Wallac) was added. The plates were gently tapped to encourage micelle formation, incubated at room temperature for 10 minutes, and fluorescence read on a Wallac 1420 workstation at […].

T1 sequence (P01375 77-233 limits assumed): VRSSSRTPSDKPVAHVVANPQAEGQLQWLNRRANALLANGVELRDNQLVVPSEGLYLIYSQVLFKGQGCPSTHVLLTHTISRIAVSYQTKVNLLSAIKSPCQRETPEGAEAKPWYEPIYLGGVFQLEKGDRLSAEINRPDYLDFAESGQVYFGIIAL
T8 sequence (Q9WU72 127-309 limits assumed): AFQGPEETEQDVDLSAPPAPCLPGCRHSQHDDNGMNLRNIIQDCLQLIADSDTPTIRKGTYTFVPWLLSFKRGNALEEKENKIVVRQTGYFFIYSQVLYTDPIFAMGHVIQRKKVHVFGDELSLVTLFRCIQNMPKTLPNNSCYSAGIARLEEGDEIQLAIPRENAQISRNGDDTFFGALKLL
T3 sequence (P02769 25-607 limits assumed): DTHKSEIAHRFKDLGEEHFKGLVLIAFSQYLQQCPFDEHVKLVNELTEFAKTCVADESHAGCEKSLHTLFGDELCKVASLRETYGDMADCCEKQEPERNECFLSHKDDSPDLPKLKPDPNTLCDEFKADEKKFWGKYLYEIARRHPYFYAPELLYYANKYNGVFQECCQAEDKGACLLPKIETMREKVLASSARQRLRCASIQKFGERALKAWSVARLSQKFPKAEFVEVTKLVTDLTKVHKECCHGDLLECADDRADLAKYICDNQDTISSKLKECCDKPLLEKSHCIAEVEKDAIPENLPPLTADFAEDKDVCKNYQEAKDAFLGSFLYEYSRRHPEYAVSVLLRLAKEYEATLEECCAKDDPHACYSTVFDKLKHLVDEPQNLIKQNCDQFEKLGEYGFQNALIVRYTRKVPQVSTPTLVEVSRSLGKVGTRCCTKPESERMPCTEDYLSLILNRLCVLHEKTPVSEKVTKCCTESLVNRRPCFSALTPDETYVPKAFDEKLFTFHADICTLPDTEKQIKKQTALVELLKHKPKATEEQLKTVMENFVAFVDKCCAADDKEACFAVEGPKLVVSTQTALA

B1: I075A02 (scFv)
scFv: QVQLVQSGAEVKKPGSSVKVSCRASGGSFNHAISWVRQAPGRGLEWMGGILPMYGTANYAQKFQGRVTITADKLTNTVYMDLSRLRYEDTAVYYCARELGLSIVGATTGALDMWGRGTLVTVSSGGGGSGGGGSGGGGSAQSVVTQPPSASGTPGQRVTVSCSGGRSNIGSNTVSWYQQLPGTAPKLLIYSNDERPSGVPDRFSGSNSGTSASLAISGLQSEDEADYYCAAWDDSLNGVAFGGGTKLTVLG
With B1, the binding result with TNF-alpha is “no binding”; with TNF-beta it was “no binding”; in the test with Bovine serum albumin it was “no binding”; in the test with TRAIL, “no binding”; in test [1], “binds”; with LIGHT it was “no binding”.

B2: I082H08 (scFv)
scFv: EVQLVESGGGLVQPGGSLRLSCAASGFTFSDYGMHWVRQRPGKGLEWIAFIGSDGSNKYYGDTVKGRFTISRDNAKNSLYLQMNSLRAEGTAVYYCARDWDMDVWGQGTMVTVSSGGGGSGGGGSGGGGSSHVILTQPRSVSGSPGQSVTISCTGTSSDVGGYHYVSWYQQHPGKAPRLMIYEVTKRPSGVSNRFSGSKSGNTASLTISGVQAEDEADYYCSSYTSASTVIFGGGTKLTVLG
Turning to B2, the Kd in [2] came to 1 nM. In other words, the single-digit nanomolar range.

B3: I016H07 (scFv)
scFv: GVQLVQSGAEVKKPGASVKVSCKASGYTFTHYAINWLRQAPGQRPEWMGTINTGNGNTKYSQNFQGRLTITRDTSASTVNMELSSLRSEDTAVYYCAGGYHDPLTSYNYNWFDPWGQGTMVTVSSGGGGSGGGGSGGGGSSELTQDPAVSVALGQTVRITCQGDSLRSYYTNWFQQKPGQAPLLVVYAKNKRPSGIPDRFSGSSSGNTASLTITGAQAEDEADYYCHSRDSSGNHVLFGGGTKLTVLG
With B3, the binding result was “binds” in test [3]; “no binding” with TNF-alpha; “no binding” with TNF-beta; “no binding” in the test with Fas ligand; “no binding” in test [4]; “no binding” in the test with TRAIL. Besides, the binding result in test [5] is recorded as “binds”.

B4: I082G02 (scFv)
scFv: KVQLVESGGGVVQPGRSLRLSCVTSGFTFSSYGMHWVRQAPGKGLEWVAGISYDGAKEYYGDPVKGRFTISRDNTKKTLNLQMNSLRAEDTAVYYCARDGYRTNDALDIWGQGTLATVSSGGGGSGGGGSGGGGSDIQMTQSPSTLSASIGDRVTITCRASEGIYHWLAWYQQKPGKAPKLLIYKASSLASGAPSRFSGSGSGTDFTLTISSLQPDDFATYYCQQYSNYPLTFGGGTKLEIKR
The molecule B4 gave a Kd in test [2] of 6 nM.

B5: I050A07 (scFv)
scFv: QVQLVQSGAEVKKPGASMKVSCKASAGRASAYGFAMHPIHWVRQAPGQGLEWMGWINGGTGNTKYSEKFLGRVTMTSDTSATTAYMELSSLRSEDTAVYYCARQDNDPLTGYKLGFDYWGKGTLVTVSSGGGGSGGGGSGGGGSAQSVVTQPPSVSGAPGQRVTISCTGSSTNVGAGYGVHWYQQFPETAPKLLIYGGSNRPSGVPDRFSGSQSGTSASLAITGLQAEDEADYYCQSYDTTLSGYVFGTGTKVTVLG
Regarding B5, the IC50 in [6] is 17.1 nM. In addition, the binding result with TNF-beta, with Fas ligand and with TRAIL was “no binding” in each case.

B6: I079E02 (scFv)
scFv: QVQLVQSGAEVKKPGSSVKVSCKASGGTFSSYAISWVRQAPGQGLEWMGGIIPIFGTANYAQKFQGRVTITADKSTSTAYMELSSLRSDDTAVYYCARDSGSYYYDAFDIWGKGTMVTVSSGGGGSGGGGSGGGGSDIVMTQSPSTLSASVGDRVTITCRASQGISSWLAWYQQKPGKAPKLLIYAASSLQSGVPSRFSGSGSGTDFTLTISSLQPEDFATYYCQQANSFPLTFGGGTKVEIKR
With B6, the dissociation constant Kd in [2] came out at 10 nM.

B7: I079F11 (scFv)
scFv: QVQLVQSGGGLVKPGGSLRLSCAASGFTFSSYSMNWVRQAPGKGLEWVAVVSSDGGNKYYADSVKGRFTISRDNSKNTVYLQMNSLRADDTAVYYCAKTGSGFDYWGRGTLVTVSSGGGGSGGGGSGGGGSDIQMTQSPSTLSASIGDRVTITCRASEGIYHWLAWYQQKPGKAPKLLIYKASSLASGAPSRFSGSGSGTDFTLTISSLQPDDFATYYCQQYSNYPLTFGGGTKLEIKR
Regarding B7, the affinity in [2], expressed as Kd, was 5 nM.

B8: I099D03 (scFv)
scFv: QVQLVQSGAEVKKPGASVRVSCKSSGYTFTNYGISWVRQAPGQGLEWMGWISNNNGKTYYAQKVQGRVTMTTDTSTSTDYMELRGLRSDDTAIYYCARDNGGGTIGFDYWGRGTLVTVSSGGGGSGGGGSGGGGSAQAVLTQPSSVSGAPGQRVTMSCTGSSSNIGAGYDVHWYQQLPGTAPKLLIYDNTNRPSGVPDRFSGSRSGTSASLAITGLQAEDEADYFCQSYDITLSAVFGTGTKVTVLG
The molecule B8 yielded a Kd in [2] of 4 nM.

B9: I008C03 (scFv)
scFv: QMQLVRSGGGVVQPGRSLRLSCAASGFTFSSYGMHWVRQAPGKGLEWVSVTYSGGNTNYADSVRGRFTISRDNSKNTLYLQMNSLRAEDTAVYYCAREGSYDILTGYYVGVGRMDVWGKGTLVTVSSGGGGSGGGGSGGGGSSELTQDPAVSVALGQTVRITCQGDSLRSYYTNWFQQKPGQAPLLVVYAKNKRPSGIPDRFSGSSSGNTASLTITGAQAEDEADYYCNSRDSSGNHVVFGGGTKLTVLG
B9: the binding result in test [3] was “binds”; with TNF-alpha, “no binding”; with TNF-beta, “no binding”; with Fas ligand, “no binding”; in test [4] it was “no binding”; with TRAIL, “no binding”. The binding result in test [5] is “binds”.

B10: I037E07 (scFv)
scFv: QVQLVQSGAEVKKPGASVKVSCKASGYTFTNYGITWVRQAPGQGLEWMGWISAYNGNRNYAQKLQGRVTMTTDTSTSTAYMELRSLRSDDTAVYYCVRDGIDILLVPAALMDVWGRGTMVTVSSGGGGSGGGGSGGGGSQSVLTQPASVSGSPGQSITISCTGTSSDVGGYNYVSWYQQHPGKAPKLMIYEGSKRPSGVSNRFSGSKSGNTASLTISGLQAEDEADYYCSSYTTRSTRVFGGGTKLTVLG
B10: the binding result is reported as “binds” in test [3]; “no binding” with TNF-alpha; “no binding” with TNF-beta; “no binding” with Fas ligand; “no binding” in [4]; “no binding” in the test with TRAIL. Besides, in test [5], the binding result is given as “binds”.

B11: I037E12 (scFv)
scFv: B10 scFv with Q1E, R116K, M119L, S193N
Take B11: the binding result in test [3] was “binds”; with TNF-alpha, “no binding”; with TNF-beta, “no binding”; in the test with Fas ligand, “no binding”; in test [4] it was “no binding”; in the test with TRAIL, “no binding”. Also, the binding result in [5] is reported as “binds”.
